US20230093155A1 (CUGENE, published 2023)
Numbering of substitutions follows the chain as printed. In names and notes the source's numbering stands. Bridge positions count the residues as written; N and C are the ends. Ends that are not written are not given here.

B1: P-0757 (wild-type IL-2RαSushi monovalent Fc fusion) (Fc fusion)
chain: ELCDDDPPEIPHATFKAMAYKEGTMLNCECKRGFRRIKSGSLYMLCTGNSSHSSWDNQCQCTSSATRNTTKQVTPQPEEQKERKTTEMQSPMQPVDQASLPGHCREPPPWENEATERIYHFVVGQMVYYQCVQGYRALHRGPAESVCKMTHGKTRWTQPQLICTG
notes: also called w/t IL-2Rα; not shown: Fc chain fused to the Sushi domain, its linker and orientation, and the partner Fc chain of the monovalent heterodimer
B2: P-0751 (IL-2RαSushi Y43A monovalent Fc fusion) (Fc fusion)
chain: B1 chain with Y43A
notes: also called IL-2Rα Y43A; not shown: Fc chain fused to the Sushi variant, its linker and orientation, and the partner Fc chain of the monovalent heterodimer
B3: P-0752 (IL-2RαSushi L42G monovalent Fc fusion) (Fc fusion)
chain: B1 chain with L42G
notes: also called IL-2Rα L42G; not shown: Fc chain fused to the Sushi variant, its linker and orientation, and the partner Fc chain of the monovalent heterodimer
B4: P-0753 (IL-2RαSushi R36A monovalent Fc fusion) (Fc fusion)
chain: B1 chain with R36A
notes: also called IL-2Rα R36A; not shown: Fc chain fused to the Sushi variant, its linker and orientation, and the partner Fc chain of the monovalent heterodimer
B5: L03 (IL-2Rβ-based blocking peptide) (peptide)
peptide: CEISQASHYFERHLC
modifications: bridge 1-15 (inferred); also: biotinylated, site not given here, cyclized, bridge kind not given here
notes: also called cyclized loop 2

Legend:
P-0689 (IL-2 Fc fusion) = biological target: T1, P-0689 (IL-2 Fc fusion) (Homo sapiens (Human), UniProt P0DOX5 223-448 = IgG part); assay: ELISA, IL-2RαSushi Fc fusion coated, P-0689 titrated, biotin anti-IL2 antibody and Avidin-HRP
T1 construct: Monovalent IL-2 S125I Fc fusion; also called IL-2 S125I monovalent Fc fusion protein; monovalent wild-type IL-2 Fc fusion protein
Protocol: IL-2Rα variants were designed to reduce binding to IL-2 by incorporating mutations at residues interacting IL-2 so that the D3 moiety would readily diffuse away upon in vivo proteolysis. Three exemplary IL-2RαSushi variants (SEQ ID NOS: 267-269) were expressed as monovalent Fc fusion proteins corresponding to P-0751 (Y43A), P-0752 (L42G), and P-0753 (R36A), respectively. The three IL-2RαSushi variant Fc fusions were assessed for the impacts of individual mutations on binding to IL-2 in ELISA in comparison to their wild-type IL-2RαSushi counterpart fusion referred to as P-0757.
Briefly, IL-2RαSushi variant monovalent Fc fusion proteins was coated onto the wells of Nunc Maxisorp 96-well microplates at 1 μg/well. […] Following a one-hour incubation at room temperature, 100 μl/well of biotin anti-IL2 antibody clone B33-2 (BD biosciences) at 1 μg/ml were added to each well and incubated at room temperature for 1 hour. Subsequently, 100 μl/well of Avidin-HRP (BioLegend) at 1:500 dilution was added to each well and incubated for 30 min. Finally, 100 μl TMB substrate was added to each well; the plate was developed at room temperature, and 100 μl/well of stop solution was added. Absorbance was determined at 450 nm and curves were fit using Prism software (GraphPad).

[1] = biological target: P-0153 (IL-15/IL-15RαSushi+ Fc fusion protein); assay: ELISA, P-0153 coated, biotinylated peptide titrated, Streptavidin-HRP
Sequence of P-0153 (IL-15/IL-15RαSushi+ Fc fusion protein) (chain, as listed by the source, chain 1 of 2): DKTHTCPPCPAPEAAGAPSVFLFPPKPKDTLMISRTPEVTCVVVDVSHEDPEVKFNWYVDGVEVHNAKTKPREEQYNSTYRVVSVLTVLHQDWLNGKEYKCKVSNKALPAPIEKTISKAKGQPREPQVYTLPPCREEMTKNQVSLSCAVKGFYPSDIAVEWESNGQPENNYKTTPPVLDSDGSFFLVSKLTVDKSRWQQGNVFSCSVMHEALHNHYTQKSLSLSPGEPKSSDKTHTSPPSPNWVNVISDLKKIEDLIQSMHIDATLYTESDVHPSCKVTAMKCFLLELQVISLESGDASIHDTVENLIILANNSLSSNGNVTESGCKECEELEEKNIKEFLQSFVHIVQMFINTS
Sequence of P-0153 (IL-15/IL-15RαSushi+ Fc fusion protein) (chain, as listed by the source, chain 2 of 2): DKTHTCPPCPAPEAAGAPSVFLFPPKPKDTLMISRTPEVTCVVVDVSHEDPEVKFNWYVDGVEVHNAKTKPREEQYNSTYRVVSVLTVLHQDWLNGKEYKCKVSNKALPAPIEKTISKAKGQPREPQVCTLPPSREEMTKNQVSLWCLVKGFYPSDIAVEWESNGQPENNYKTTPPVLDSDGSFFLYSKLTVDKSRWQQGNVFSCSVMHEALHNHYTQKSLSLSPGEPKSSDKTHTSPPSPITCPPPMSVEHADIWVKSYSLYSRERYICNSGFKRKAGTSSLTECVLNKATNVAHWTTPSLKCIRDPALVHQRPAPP
Protocol: The five peptides, L01 to L05 (SEQ ID NO: 97-101) in Table 19 were synthesized and assessed for their binding to IL-15 in ELISA format. […] Streptavidin-HRP complex at the manufacturer's recommended concentration was added and signal was developed by TMB substrate.

Binder | EC50 (P-0689 (IL-2 Fc fusion)) [nM] | EC50 Fold change vs w/t IL-2Rα (P-0689 (IL-2 Fc fusion)) [fold] | binding result [1]
B1 | 0.26 | 1 | 
B2 | 2.1 | 8.1 | 
B3 | 9.2 | 35 | 
B4 | 90 | 346 | 
B5 |  |  | binds
